By EC50 (read off the curve) is commonly meant the concentration at which the effect is half-maximal. Lower therefore signals higher potency in that assay.

Assay [1] deals with cynomolgus CD40 protein expressed on CHO-S cells (cynomolgus) (UniProt G7PG38). As to the kind of experiment: flow cytometry on CHO-S cells transiently expressing cynomolgus CD40; AF647 anti-human IgG (H+L) secondary; GeoMean RL1-H. On the technique in general: Flow cytometry measures light scatter and fluorescence of single cells or particles in a stream.
The target in assay [2] is human CD40 protein expressed on cells (human) (UniProt P25942). Put plainly: flow cytometry on CHO-S cells transiently expressing human CD40; AF647 anti-human IgG (H+L) secondary; GeoMean RL1-H.
Sequence of human CD40 protein expressed on cells (human) (P25942 21-277 limits assumed): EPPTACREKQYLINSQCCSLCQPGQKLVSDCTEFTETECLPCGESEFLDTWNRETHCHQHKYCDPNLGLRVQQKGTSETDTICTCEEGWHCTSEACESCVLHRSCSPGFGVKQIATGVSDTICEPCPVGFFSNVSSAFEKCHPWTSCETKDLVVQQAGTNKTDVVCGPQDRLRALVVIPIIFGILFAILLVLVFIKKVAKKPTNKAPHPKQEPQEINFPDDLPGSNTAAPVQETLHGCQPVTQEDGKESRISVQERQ

Sequence of cynomolgus CD40 protein expressed on CHO-S cells (cynomolgus) (G7PG38 entry or part of it): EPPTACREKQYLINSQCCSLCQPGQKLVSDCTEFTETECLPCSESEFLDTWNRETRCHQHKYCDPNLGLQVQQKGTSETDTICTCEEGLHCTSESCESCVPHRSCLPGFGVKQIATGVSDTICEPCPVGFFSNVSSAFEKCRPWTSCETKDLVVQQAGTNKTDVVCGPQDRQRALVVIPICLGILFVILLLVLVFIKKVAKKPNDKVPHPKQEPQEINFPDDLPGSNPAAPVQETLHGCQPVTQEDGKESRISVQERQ

B1: ADC-1013 analogue (antibody, INN chains, looked up, IgG1, V domains shown)
VH: EVQLLESGGGLVQPGGSLRLSCAASGFTFSTYGMHWVRQAPGKGLEWLSYISGGSSYIFYADSVRGRFTISRDNSENALYLQMNSLRAEDTAVYYCARILRGGSGMDLWGQGTLVTVSS
VL: QSVLTQPPSASGTPGQRVTISCTGSSSNIGAGYNVYWYQQLPGTAPKLLIYGNINRPSGVPDRFSGSKSGTSASLAISGLRSEDEADYYCAAWDKSISGLVFGGGTKLTVL
For the molecule B1, the EC50 (read off the curve) in assay [1] and in assay [2] was 0.01 µg/mL in each case.

Values taken from patent publication US20210214454A1.
